Test results: IntAct's records for PubMed 7890747

B1: Retinoblastoma-associated protein (Homo sapiens), P06400 (parent)
chain: MPPKTPRKTAATAAAAAAEPPAPPPPPPPEEDPEQDSGPEDLPLVRLEFEETEEPDFTALCQKLKIPDHVRERAWLTWEKVSSVDGVLGGYIQKKKELWGICIFIAAVDLDEMSFTFTELQKNIEISVHKFFNLLKEIDTSTKVDNAMSRLLKKYDVLFALFSKLERTCELIYLTQPSSSISTEINSALVLKVSWITFLLAKGEVLQMEDDLVISFQLMLCVLDYFIKLSPPMLLKEPYKTAVIPINGSPRTPRRGQNRSARIAKQLENDTRIIEVLCKEHECNIDEVKNVYFKNFIPFMNSLGLVTSNGLPEVENLSKRYEEIYLKNKDLDARLFLDHDKTLQTDSIDSFETQRTPRKSNLDEEVNVIPPHTPVRTVMNTIQQLMMILNSASDQPSENLISYFNNCTVNPKESILKRVKDIGYIFKEKFAKAVGQGCVEIGSQRYKLGVRLYYRVMESMLKSEEERLSIQNFSKLLNDNIFHMSLLACALEVVMATYSRSTSQNLDSGTDLSFPWILNVLNLKAFDFYKVIESFIKAEGNLTREMIKHLERCEHRIMESLAWLSDSPLFDLIKQSKDREGPTDHLESACPLNLPLQNNHTAADMYLSPVRSPKKKGSTTRVNSTANAETQATSAFQTQKPLKSTSLSLFYKKVYRLAYLRLNTLCERLLSEHPELEHIIWTLFQHTLQNEYELMRDRHLDQIMMCSMYGICKVKNIDLKFKIIVTAYKDLPHAVQETFKRVLIKEEEYDSIIVFYNSVFMQRLKTNILQYASTRPPTLSPIPHIPRSPYKFPSSPLRIPGGNIYISPLKSPYKISEGLPTPTKMTPRSRILVSIGESFGTSEKFQKINQMVCNSDRVLKRSAEGSNPPKPLKKLRFDIEGSDEADGSKHLPGESKFQQKLAEMTSTRTRMQKQKMNDSMDTSNKEEK
partner: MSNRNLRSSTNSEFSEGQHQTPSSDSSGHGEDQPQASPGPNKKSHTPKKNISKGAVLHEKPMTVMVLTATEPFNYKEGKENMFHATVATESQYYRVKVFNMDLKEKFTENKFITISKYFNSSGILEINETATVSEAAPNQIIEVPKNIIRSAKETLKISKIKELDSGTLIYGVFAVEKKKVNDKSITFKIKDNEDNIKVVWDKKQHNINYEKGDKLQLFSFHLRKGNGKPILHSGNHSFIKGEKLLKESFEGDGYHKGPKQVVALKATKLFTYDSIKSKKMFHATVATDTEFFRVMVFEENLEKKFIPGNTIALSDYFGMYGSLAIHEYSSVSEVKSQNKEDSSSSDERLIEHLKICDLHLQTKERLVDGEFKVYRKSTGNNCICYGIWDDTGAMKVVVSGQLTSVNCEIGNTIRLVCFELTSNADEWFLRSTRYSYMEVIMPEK

Variants of: B1
Settings: with ifi2_mouse Ifi202, Q9R002

Row | effect of a mutation on the interaction | Variant
1 | decreasing interaction | C706F
